Results as given in IntAct's records for PubMed 18434552.

B1: Tyrosine-protein phosphatase non-receptor type 23 (Homo sapiens), Q9H3S7 (parent)
chain: MEAVPRMPMIWLDLKEAGDFHFQPAVKKFVLKNYGENPEAYNEELKKLELLRQNAVRVPRDFEGCSVLRKYLGQLHYLQSRVPMGSGQEAAVPVTWTEIFSGKSVAHEDIKYEQACILYNLGALHSMLGAMDKRVSEEGMKVSCTHFQCAAGAFAYLREHFPQAYSVDMSRQILTLNVNLMLGQAQECLLEKSMLDNRKSFLVARISAQVVDYYKEACRALENPDTASLLGRIQKDWKKLVQMKIYYFAAVAHLHMGKQAEEQQKFGERVAYFQSALDKLNEAIKLAKGQPDTVQDALRFTMDVIGGKYNSAKKDNDFIYHEAVPALDTLQPVKGAPLVKPLPVNPTDPAVTGPDIFAKLVPMAAHEASSLYSEEKAKLLREMMAKIEDKNEVLDQFMDSMQLDPETVDNLDAYSHIPPQLMEKCAALSVRPDTVRNLVQSMQVLSGVFTDVEASLKDIRDLLEEDELLEQKFQEAVGQAGAISITSKAELAEVRREWAKYMEVHEKASFTNSELHRAMNLHVGNLRLLSGPLDQVRAALPTPALSPEDKAVLQNLKRILAKVQEMRDQRVSLEQQLRELIQKDDITASLVTTDHSEMKKLFEEQLKKYDQLKVYLEQNLAAQDRVLCALTEANVQYAAVRRVLSDLDQKWNSTLQTLVASYEAYEDLMKKSQEGRDFYADLESKVAALLERTQSTCQAREAARQQLLDRELKKKPPPRPTAPKPLLPRREESEAVEAGDPPEELRSLPPDMVAGPRLPDTFLGSATPLHFPPSPFPSSTGPGPHYLSGPLPPGTYSGPTQLIQPRAPGPHAMPVAPGPALYPAPAYTPELGLVPRSSPQHGVVSSPYVGVGPAPPVAGLPSAPPPQFSGPELAMAVRPATTTVDSIQAPIPSHTAPRPNPTPAPPPPCFPVPPPQPLPTPYTYPAGAKQPIPAQHHFSSGIPAGFPAPRIGPQPQPHPQPHPSQAFGPQPPQQPLPLQHPHLFPPQAPGLLPPQSPYPYAPQPGVLGQPPPPLHTQLYPGPAQDPLPAHSGALPFPSPGPPQPPHPPLAYGPAPSTRPMGPQAAPLTIRGPSSAGQSTPSPHLVPSPAPSPGPGPVPPRPPAAEPPPCLRRGAAAADLLSSSPESQHGGTQSPGGGQPLLQPTKVDAAEGRRPQALRLIERDPYEHPERLRQLQQELEAFRGQLGDVGALDTVWRELQDAQEHDARGRSIAIARCYSLKNRHQDVMPYDSNRVVLRSGKDDYINASCVEGLSPYCPPLVATQAPLPGTAADFWLMVHEQKVSVIVMLVSEAEMEKQKVARYFPTERGQPMVHGALSLALSSVRSTETHVERVLSLQFRDQSLKRSLVHLHFPTWPELGLPDSPSNLLRFIQEVHAHYLHQRPLHTPIIVHCSSGVGRTGAFALLYAAVQEVEAGNGIPELPQLVRRMRQQRKHMLQEKLHLRFCYEAVVRHVEQVLQRHGVPPPCKPLASASISQKNHLPQDSQDLVLGGDVPISSIQATIAKLSIRPPGGLESPVASLPGPAEPPGLPPASLPESTPIPSSSPPPLSSPLPEAPQPKEEPPVPEAPSSGPPSSSLELLASLTPEAFSLDSSLRGKQRMSKHNFLQAHNGQGLRATRPSDDPLSLLDPLWTLNKT
partner: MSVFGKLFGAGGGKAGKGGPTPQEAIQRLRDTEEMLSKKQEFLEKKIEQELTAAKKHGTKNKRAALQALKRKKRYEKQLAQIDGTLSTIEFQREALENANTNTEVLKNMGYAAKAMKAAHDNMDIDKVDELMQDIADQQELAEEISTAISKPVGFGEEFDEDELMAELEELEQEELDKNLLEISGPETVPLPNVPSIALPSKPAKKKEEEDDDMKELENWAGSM

Variants of: B1
Conditions: with chm4b_human CHMP4B

| Variant | effect of a mutation on the interaction |
| --- | --- |
| L202D;I206D | disrupting interaction |
| L202D | disrupting interaction |
